From paper PMC4598844, “BAP1 promotes breast cancer cell proliferation and metastasis by deubiquitinating KLF5” (Nature Communications, 2015)

Target: T1, GST-BAP1, purified recombinant (human, UniProt Q92560 1-729)
T1 construct: BRCA1-associated protein 1 (BAP1), human, wild type, cloned from MCF10A cells into pGEX-6p-1; also called purified GST-BAP1; source: E. coli BL21 (DE3), purified (glutathione sepharose 4B)
T1 sequence (looked up): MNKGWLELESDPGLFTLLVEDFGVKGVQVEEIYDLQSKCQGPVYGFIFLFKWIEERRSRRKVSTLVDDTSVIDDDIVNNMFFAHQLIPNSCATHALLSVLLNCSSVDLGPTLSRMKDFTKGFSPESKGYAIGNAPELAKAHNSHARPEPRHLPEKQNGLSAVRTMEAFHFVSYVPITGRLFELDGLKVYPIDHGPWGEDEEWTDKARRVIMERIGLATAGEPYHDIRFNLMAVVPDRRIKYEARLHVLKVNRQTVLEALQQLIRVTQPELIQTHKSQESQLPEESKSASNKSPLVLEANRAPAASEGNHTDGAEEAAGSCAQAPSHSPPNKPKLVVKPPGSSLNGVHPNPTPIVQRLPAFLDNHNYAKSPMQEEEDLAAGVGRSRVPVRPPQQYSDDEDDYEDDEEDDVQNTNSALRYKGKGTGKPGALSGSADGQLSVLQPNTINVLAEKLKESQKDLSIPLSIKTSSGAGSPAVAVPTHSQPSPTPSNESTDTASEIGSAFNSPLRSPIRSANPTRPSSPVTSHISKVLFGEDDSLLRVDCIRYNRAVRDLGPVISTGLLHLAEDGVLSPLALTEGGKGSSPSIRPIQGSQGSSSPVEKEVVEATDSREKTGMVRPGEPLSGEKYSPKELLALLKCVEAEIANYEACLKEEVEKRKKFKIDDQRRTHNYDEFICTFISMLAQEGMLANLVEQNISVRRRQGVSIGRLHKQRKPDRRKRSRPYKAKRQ
Test: pull-down; purified recombinant GST-BAP1 (and GST) pulled down with glutathione beads; KLF5-6 × His detected by WB
Settings: both partners purified

binding result: binds
B1: KLF5-6 × His, purified recombinant (natural protein)
chain: not shown
notes: Krüppel-like zinc-finger transcription factor 5 (KLF5), subcloned into the pET28-3C vector; The tag is printed after the protein's name; not repeated for this construct; source: E. coli BL21 (DE3), purified (Ni-NTA)
